Results on two molecules are retold here after patent US20200378979, “FLUORESCENT MEROCYANINE DYES, ASSOCIATED CONJUGATES AND METHODS” (University of Guelph, published 2020).

For data set [1], the target named is T1, thrombin (Bos taurus, UniProt P00735;P00735 P00735:318-366,P00735:367-625). The data set can be described thus: FP; K+ phosphate buffer pH 7.0; duplex to G4 exchange, 36% fluorescence increase. The conditions noted are these: tags: bovine thrombin dry powder, Sigma Aldrich; label: 5'-4QI; partial duplex with 9-mer complement, 3' ssDNA.
Data set [2] has as its target T1, thrombin. The data set can be described thus: FP; K+ phosphate buffer pH 7.0, 20 C; Table 6 lists 1.5±0.3 uM. The following applies: tags: bovine thrombin dry powder, Sigma Aldrich; label: 5'-4QI; antiparallel G4.

B1: 4QI-TBA-E:TBA-C9 duplex (dsDNA)
DNA 1: GGTTGGTGTGGTTGGT
DNA 2: ACACCAACC
modifications: 5'-4QI on aptamer strand; extra 3' dT
For orientation: Kd means the constant that tells how readily two partners part at equilibrium. High values mean weaker binding, low ones tighter binding. In turn, B1 had a dissociation constant Kd with thrombin [1] of 1300 nM.

B2: 4QI-TBA-E (structured_DNA)
DNA: GGTTGGTGTGGTTGGT
modifications: 5'-4QI merocyanine end-label; extra 3' dT
As for B2, the dissociation constant Kd in the data set with thrombin [2] was 1100 nM.
